This note sets out measurements from patent US20160264649A1.

What all share (assay): cell-based or functional assay
For assay [1], the target named is HIV-1 MGRM-F1-013 Env (HIV-1).
The target of another assay is HIV-1 ADA Env (HIV-1).
For assay [2], the target named is HIV-1 JR-CSF Env (wild-type) (HIV-1) (UniProt P20871).
Assay [3] deals with HIV-1 92RW008 Env (HIV-1).
Assay [4] concerns the target HIV-1 Env of isolate 92TH021 (subtype AE) (HIV-1).
Assay [5] addresses HIV-1 Env of isolate 92UG046 (subtype D) (HIV-1).
In assay [6] the target is HIV-1 Env of isolate 92WR021 (subtype A) (HIV-1).
The target of assay [7] is HIV-1 Env of isolate 92WR026 (subtype A) (HIV-1).
Assay [8] concerns the target HIV-1 Env of isolate 93MW959 (subtype C) (HIV-1).
Assay [9] deals with HIV-1 Env of isolate 98CN009 (subtype CRF07_BC) (HIV-1).
For assay [10], the target named is HIV-1 Env of isolate MG RM-C-027 (subtype C) (HIV-1).
In assay [11] the target is HIV-1 Env of isolate MG RM-C-028 (subtype C) (HIV-1).
Assay [12] addresses HIV-1 Env of isolate MGRM-AE-003 (subtype AE) (HIV-1).
Assay [13] concerns the target HIV-1 Env of isolate MGRM-Chronic-B-018 (subtype B) (HIV-1).
Assay [14] addresses HIV-1 Env of isolate MGRM-D-026 (subtype D) (HIV-1).
Assay [15] concerns the target HIV-1 Env of isolate MGRM-D-028 (subtype D) (HIV-1).
In assay [16] the target is HIV-1 Env of isolate MGRM-F1-016 (subtype F) (HIV-1).
Assay [17] deals with HIV-1 Env of isolate SC422661.8 (subtype B) (HIV-1).
Assay [18] concerns the target HIV-1 Env of isolate TRJ04551.58 (subtype B) (HIV-1).
For assay [19], the target named is HIV-1 Env of pseudovirus isolate MGRM-G-011 (subtype G) (HIV-1).
Assay [20] addresses HIV-1 Env of isolate 92 BR 020 (subtype B) (HIV-1).
In assay [21] the target is HIV-1 Env of isolate 92UG005 (subtype D) (HIV-1).
Assay [22] concerns the target HIV-1 Env of isolate 92UG037 (subtype A) (HIV-1).
In assay [23] the target is HIV-1 Env of isolate APV_13 (subtype B) (HIV-1).
Assay [24] addresses HIV-1 Env of isolate CMU02 (subtype AE) (HIV-1).
For assay [25], the target named is HIV-1 Env of isolate JRFL (subtype B) (HIV-1).
Assay [26] addresses HIV-1 Env of isolate MGRM-Chronic-B-003 (subtype B) (HIV-1).
The target in assay [27] is HIV-1 Env of isolate MGRM-Chronic-B-011 (subtype B) (HIV-1).
For assay [28], the target named is HIV-1 Env of isolate MGRM-Chronic-B-020 (subtype B) (HIV-1).
In assay [29] the target is HIV-1 Env of isolate MGRM-D-018 (subtype D) (HIV-1).
The target of assay [30] is HIV-1 Env of isolate MGRM-D-021 (subtype D) (HIV-1).
Assay [31] addresses HIV-1 Env of isolate MGRM-D-022 (subtype D) (HIV-1).
Assay [32] addresses HIV-1 Env of isolate MGRM-D-029 (subtype D) (HIV-1).
Assay [33] concerns the target HIV-1 Env of isolate MGRM-F1-008 (subtype F) (HIV-1).
The target of assay [34] is HIV-1 Env of isolate MGRM-F1-014 (subtype F) (HIV-1).
Assay [35] concerns the target HIV-1 Env of isolate MGRM-F1-015 (subtype F) (HIV-1).
Assay [36] addresses HIV-1 Env of isolate MGRM-F1-017 (subtype F) (HIV-1).
The target of assay [37] is HIV-1 Env of isolate MGRM-F1-021 (subtype F) (HIV-1).
For assay [38], the target named is HIV-1 Env of isolate MGRM-F1-022 (subtype F) (HIV-1).
The target in assay [39] is HIV-1 Env of isolate MGRM-F1-023 (subtype F) (HIV-1).
Assay [40] concerns the target HIV-1 Env of isolate NL43 (subtype B) (HIV-1).
The target of assay [41] is HIV-1 Env of isolate QH0692.42 (subtype B) (HIV-1).
The target of assay [42] is HIV-1 Env of isolate SF162 (subtype B) (HIV-1) (UniProt P19550).
The target in assay [43] is HIV-1 Env of pseudovirus isolate MGRM-G-004 (subtype G) (HIV-1).
The target in assay [44] is HIV-1 Env of pseudovirus isolate MGRM-G-013 (subtype G) (HIV-1).
The target in assay [45] is HIV-1 Env of pseudovirus isolate MGRM-G-025 (subtype G) (HIV-1).
Assay [46] deals with envelope of aMLV pseudovirus (negative control).

Sequence of 1443_C16 (PG16) (TCN-116) (antibody) (VH): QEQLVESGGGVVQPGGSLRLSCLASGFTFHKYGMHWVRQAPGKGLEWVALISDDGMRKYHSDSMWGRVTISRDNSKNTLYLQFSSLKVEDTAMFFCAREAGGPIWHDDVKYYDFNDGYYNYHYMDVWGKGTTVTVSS
Sequence of 1443_C16 (PG16) (TCN-116) (antibody) (VL): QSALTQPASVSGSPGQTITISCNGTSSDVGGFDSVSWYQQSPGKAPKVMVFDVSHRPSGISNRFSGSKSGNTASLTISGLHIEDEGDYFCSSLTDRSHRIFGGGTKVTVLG

2F5 (antibody): the IC50 (pseudovirus neutralization) in [1] stood at 4.57 µg/mL.

Turning to 2G12 (antibody), the IC50 (pseudovirus neutralization) in assay [1] was > 50 µg/mL.

Turning to 1443_C16 (PG16) (TCN-116) (antibody), the figures for the IC50, TZM-bl pseudovirus neutralization (with HIV-1 ADA Env (HIV-1); in [2]) were 0.004 µg/mL and 0.001 µg/mL, respectively.

As for 1495_C14 (PGC14) (antibody), in [1], the IC50 (pseudovirus neutralization) turned out to be 6 µg/mL.

What is called IC50 is the midpoint of a concentration-inhibition curve. A low value points to higher potency. In the case of 1496_C09 (PG9) (TCN-109) (antibody), the half-inhibitory concentration (IC50) is 0.006 µg/mL in assay [3], 0.216 µg/mL in assay [13], 1.48 µg/mL in [17] and 0.335 µg/mL in assay [19]. The IC50, TZM-bl pseudovirus neutralization with HIV-1 ADA Env (HIV-1) was found to be 0.2 µg/mL; in assay [2], 0.006 µg/mL. The IC50 (pseudovirus neutralization) in assay [4] turned out to be 0.059 µg/mL; in assay [6], 0.027 µg/mL; in assay [7] it was 0.164 µg/mL; in [12], 0.044 µg/mL; in assay [14] it was 23.7 µg/mL; in assay [15], 20.2 µg/mL. Further, the IC50 (pseudovirus neutralization) in assay [16] is 0.518 µg/mL; in assay [1], 0.56 µg/mL. Besides, the IC50 (neutralization) in assay [5] came to 1.86 µg/mL; in assay [9], 0.371 µg/mL. The IC50 (µg/mL), pseudovirus neutralization in [8] amounted to 0.054 µg/mL; in assay [10], 5.36 µg/mL; in [11] it was 0.067 µg/mL; in assay [18], 0.858 µg/mL.

For the substance PGV04 (antibody), the half-inhibitory concentration (IC50) in [3] stood at 0.014 µg/mL; in assay [20] it was 0.25 µg/mL; in assay [23], 1.23 µg/mL; in [25] it was 0.032 µg/mL; in assay [26], 0.258 µg/mL; in assay [27] it was 0.497 µg/mL. Moreover, the IC50 in assay [13] is 0.164 µg/mL; in assay [28] it was 1.26 µg/mL; in [41], 1.9 µg/mL; in assay [17], 0.11 µg/mL; in assay [43], > 50 µg/mL; in assay [19], 0.78 µg/mL. For the same substance, the half-inhibitory concentration (IC50) in assay [44] was 0.168 µg/mL; in [45], 1.61 µg/mL; in assay [46], > 50 µg/mL. Besides, the IC50 (pseudovirus neutralization) in [4] came out at 1.29 µg/mL; in [22], 0.145 µg/mL; in assay [6], 0.038 µg/mL; in assay [7] it was 0.14 µg/mL; in assay [24], 1.24 µg/mL; in assay [12], 6.4 µg/mL. Besides, the IC50 (pseudovirus neutralization) in assay [29] is 17.5 µg/mL; in [30] it was > 50 µg/mL; in assay [31] it was > 50 µg/mL; in assay [14] it was 1.76 µg/mL; in assay [15] it was 1.01 µg/mL; in [32] it was 1.56 µg/mL. Also, the IC50 (pseudovirus neutralization) in assay [33] was 1.03 µg/mL; in [34], 0.02 µg/mL; in assay [35], 0.179 µg/mL; in assay [16], 0.268 µg/mL; in assay [36], 2.38 µg/mL; in assay [37] it was 0.031 µg/mL. In addition, the IC50 (pseudovirus neutralization) was 0.072 µg/mL in assay [38] and 0.171 µg/mL in [39]. Moreover, the figures for the IC50 (neutralization) in [21], in assay [5] and in [9] were 0.44 µg/mL, 22.4 µg/mL and 0.0125 µg/mL, respectively. Moreover, the IC50 (µg/mL), pseudovirus neutralization in [8] is > 50 µg/mL; in assay [10], 2.76 µg/mL; in assay [11], 0.149 µg/mL; in assay [40], 0.028 µg/mL; in [42], 0.028 µg/mL; in [18], 0.028 µg/mL.

Regarding VRC01 (antibody), the 50% inhibitory concentration (IC50) in assay [3] was 0.037 µg/mL; in assay [20] it was 0.29 µg/mL; in assay [8], 0.053 µg/mL; in assay [23] it was 0.657 µg/mL; in [25], 0.034 µg/mL; in assay [10] it was 0.125 µg/mL. The IC50 in assay [11] came out at 0.319 µg/mL; in assay [26], 0.1 µg/mL; in [27], 0.587 µg/mL; in assay [13], 0.328 µg/mL; in [28] it was 0.424 µg/mL; in [40] it was 0.1 µg/mL. For the same substance, the half-inhibitory concentration (IC50) in [41] is 1.19 µg/mL; in [17], 0.179 µg/mL; in [42], 0.421 µg/mL; in [18], 0.06 µg/mL; in [43], > 50 µg/mL; in assay [19], 0.065 µg/mL. For the same substance, the IC50 is 0.553 µg/mL in [44], 0.292 µg/mL in [45] and > 50 µg/mL in assay [46]. Moreover, the IC50 (pseudovirus neutralization) in assay [4] was 0.616 µg/mL; in assay [22], 0.245 µg/mL; in assay [6], 0.066 µg/mL; in assay [24], 0.515 µg/mL; in assay [12], 0.685 µg/mL; in [29] it was > 50 µg/mL. Further, the IC50 (pseudovirus neutralization) in [30] was 33.4 µg/mL; in assay [31], > 50 µg/mL; in [14], 0.435 µg/mL; in [15], 0.377 µg/mL; in assay [32], 3.22 µg/mL; in assay [33], 1.11 µg/mL. Moreover, the IC50 (pseudovirus neutralization) in [34] amounted to 0.056 µg/mL; in assay [35] it was 0.387 µg/mL; in assay [16], 0.517 µg/mL; in assay [36], 1.08 µg/mL; in assay [37] it was 0.039 µg/mL; in assay [38], 0.055 µg/mL. The substance also had an IC50 (pseudovirus neutralization) in assay [39] of 0.392 µg/mL. Also, the IC50 (neutralization) in assay [21] was determined as 0.576 µg/mL; in [5], 12.7 µg/mL; in assay [9], 0.346 µg/mL.

In the case of b12 (antibody), in [1], the IC50 (pseudovirus neutralization) was > 50 µg/mL.
